The experiment has as its target integrins αVβ3 and αVβ5. In words: inhibition of Ch-1 cell adhesion to coated PIIBNP by synthetic peptide (FIG. 3C).

GRGDNP [synthetic GRGDNP peptide]: the IC50 was determined as 10 µM.

As to GRADNP [synthetic GRADNP peptide], the IC50 was 60 µM.

By IC50 is commonly meant the concentration that inhibits the measured activity by half.

These data come from patent US7851436.
